Legend:
[1] = target: T1, ApoL1 Protein, human recombinant (Sino Biological 13910-H08B) (human, UniProt O14791 28-398); experiment: imaging flow cytometry: RPMI 8226 cells pre-incubated with 30 µg/mL bsAb or isotype control, then Alexa-488 labeled recombinant ApoL1
T1 construct: also called rApoL1; recombinant ApoL1
T1 sequence: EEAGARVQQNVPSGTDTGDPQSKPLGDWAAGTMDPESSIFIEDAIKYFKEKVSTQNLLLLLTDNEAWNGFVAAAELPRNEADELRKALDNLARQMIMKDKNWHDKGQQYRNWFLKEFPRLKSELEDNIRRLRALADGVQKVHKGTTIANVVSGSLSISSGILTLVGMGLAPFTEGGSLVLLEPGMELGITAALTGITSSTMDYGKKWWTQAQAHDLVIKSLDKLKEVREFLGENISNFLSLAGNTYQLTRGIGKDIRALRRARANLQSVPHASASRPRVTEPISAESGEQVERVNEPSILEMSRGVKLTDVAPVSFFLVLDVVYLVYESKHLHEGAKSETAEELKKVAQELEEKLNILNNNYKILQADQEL
Experimental: Cells were prepared as above with the addition of 15 μg/mL unlabeled ApoL1 in the blocking buffer for overnight incubation. After blocking, cells were washed 2 times with CSB and aliquoted to 50 μl aliquots for each reaction. First, bsAb or isotype control was added at 30 μg/mL for 1.5 hours, followed by 2 washes and […] of Alexa labeled ApoL1-488. Cells were incubated for 1 hour and washed 3 times with the final wash resuspended in 50 μl of CSB.
Imaging flow cytometry acquisition was performed on an ImageStream X MK II (Luminex Corporation, Seattle, Washington) with fluidics set at low speed, sensitivity set to high, magnification set to 60×, and illumination set to: 405:120 mW, 488:200 mW, 561:200 mW, 642:150 mW, SSC:4.38 mW. All samples were acquired using the autosampler with INSPIRE software for an acquisition time of 4000 events or 8 minutes per sample, with events counting SSC channel from 5.2×10\hat{ }5 to 8.9×10\hat{ }7. Gates were set and quantified using IDEAS software version 6.2.
Next, Alexa-488 labeled recombinant ApoL1 was used to determine if cell bound bsAb can bind ApoL1. Some background binding of labeled ApoL1 to cells without bsAb, likely due to existing binding affinities for ApoL1 to cell membranes, was foreseen. […]

[2] = target: T2, BCMA on RPMI 8226 (ATCC CCL-155) multiple myeloma cells (UniProt Q02223 1-184, limits assumed); experiment: imaging flow cytometry on fixed RPMI 8226 cells; Alexa-488 labeled bsAb at 3 µg/mL against Alexa-488 labeled human IgG1 isotype control
T2 construct: whole, on cells; No BCMA-negative cell control is reported; also called MM cells
T2 sequence (looked up): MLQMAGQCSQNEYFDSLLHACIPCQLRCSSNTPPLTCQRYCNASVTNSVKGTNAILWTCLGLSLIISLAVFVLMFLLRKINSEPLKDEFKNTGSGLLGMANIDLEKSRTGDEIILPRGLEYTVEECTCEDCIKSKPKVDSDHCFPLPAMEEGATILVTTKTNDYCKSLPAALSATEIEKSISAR
Experimental: Cells were cultured according to standard protocols. All cell pelleting were performed at 300× g for 5 minutes at 4 C. One to two days prior to the experiment, cells were washed and split to achieve a cell density of approximately […] in a total volume of 10-30 mL containing 10 nM LY411575 (LY). On the day of the experiment, Zombie NIR dye (BioLegend Cat. 423106) was diluted 1:100 in phosphate-buffered saline (PBS). Cells were washed and resuspended in PBS with Zombie NIR dye at a concentration of 1×10\hat{ }7 cells/mL and incubated for 10 minutes at room temperature. […]
Imaging flow cytometry acquisition was performed on an ImageStream X MK II (Luminex Corporation, Seattle, Washington) with fluidics set at low speed, sensitivity set to high, magnification set to 60×, and illumination set to: 405:120 mW, 488:200 mW, 561:200 mW, 642:150 mW, SSC:4.38 mW. […] Gates were set and quantified using IDEAS software version 6.2.
Imaging flow cytometry was used as an assay to determine if the ApoL1-BCMA-bsAb (bsAb) of Example 8 binds the two intended targets in vitro. First, the bsAb and a human IgG1 isotype control were Alexa-488 labeled and binding affinities were determined by measuring total cellular florescence after incubation. […]

[3] = target: T3, native human Apolipoprotein L1 (ApoL1), in purified TLF / HDL float / normal human serum / endogenous in … (human, UniProt O14791 28-398); experiment: Western blot of column purified TLF (2 ug), non-reducing and reducing
T3 construct: Secreted native protein carried on HDL/TLF particles; also called Native ApoL1; endogenous ApoL1
T3 sequence: T1 sequence

[4] = target: T1, ApoL1 Protein, human recombinant (Sino …); experiment: dot blot (native)
[5] = target: T1, ApoL1 Protein, human recombinant (Sino …); experiment: bridging ELISA control without bsAb (bsAb-): immobilized ApoL1, then rabbit Fc tagged BCMA, detected with anti-rabbit HRP
Experimental: Enzyme-Linked Immunosorbent Assay (ELISA) plates were prepared by incubating them overnight at 4° C. with their respective immobilization buffer (bicarbonate/carbonate coating buffer 100 mM) or blocking buffer (PBS, 0.1% Tween-20, 1% BSA).
For the bridging ELISA experiments, ApoL1 (Sino Cat.13910-H08B) or BCMA (Sino Cat. 10620-H15H) were resuspended at a 1:10,000 dilution in ELISA binding buffer (1×PBST+1% BSA) and then incubated overnight at 4° C. ApoL1 was immobilized across all conditions except where BCMA was immobilized as a primary protein (ApoL1-*). Following immobilization, 100 μl of bispecific antibody (bsAb, […] in ELISA blocking buffer) was added and allowed to incubate for 1 hour at 37° C. Subsequently, each well underwent four rounds of 150 μl washes with 1×PBST. Next, 1 μg/mL rabbit Fc tagged BCMA in ELISA blocking buffer was allowed to incubate for 1 hr at 37° C. followed by four more rounds of 150 μl 1×PBST washes. A secondary binding component, anti-rabbit HRP, was added at 1:10,000 and the plate was incubated for an additional hour at 37° C. followed by another four rounds of 150 μl washes with 1×PBST. […] The reaction was halted by adding 50 μl of Stop Solution, and the absorbance was promptly measured at 450 nm on a SpectraMax iD3 plate reader ([…]).

[6] = target: T1, ApoL1 Protein, human recombinant (Sino …); experiment: Western blot of recombinant ApoL1 (SDS-PAGE, non-reducing and reducing)

B1: Clone 13.11×BCMAscFv: bsAbBCMA/ApoL1, anti-ApoL1, BCMA IgG1-scFv (Heavy Chain C-terminus) bispecific antibody (bispecific antibody)
heavy: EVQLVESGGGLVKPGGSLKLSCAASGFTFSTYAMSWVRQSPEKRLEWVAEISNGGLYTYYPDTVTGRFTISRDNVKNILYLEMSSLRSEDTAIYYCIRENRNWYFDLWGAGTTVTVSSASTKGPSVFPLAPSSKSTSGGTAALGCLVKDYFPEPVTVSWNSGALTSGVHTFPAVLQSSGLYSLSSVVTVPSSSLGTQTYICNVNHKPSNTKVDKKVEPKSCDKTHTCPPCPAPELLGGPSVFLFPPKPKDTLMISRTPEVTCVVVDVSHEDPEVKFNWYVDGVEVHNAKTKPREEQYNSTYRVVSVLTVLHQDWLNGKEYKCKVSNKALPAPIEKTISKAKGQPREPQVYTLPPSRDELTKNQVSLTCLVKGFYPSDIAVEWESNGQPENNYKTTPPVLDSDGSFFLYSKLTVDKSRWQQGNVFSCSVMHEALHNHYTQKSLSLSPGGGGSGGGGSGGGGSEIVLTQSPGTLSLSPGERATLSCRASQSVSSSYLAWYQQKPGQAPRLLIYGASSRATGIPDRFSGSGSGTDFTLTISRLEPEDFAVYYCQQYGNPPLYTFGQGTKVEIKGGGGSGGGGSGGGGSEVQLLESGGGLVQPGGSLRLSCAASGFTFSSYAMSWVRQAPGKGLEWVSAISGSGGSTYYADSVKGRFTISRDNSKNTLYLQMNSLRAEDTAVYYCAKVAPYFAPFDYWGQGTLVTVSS
light: DVLMTQTPLSLPVSLGDQASISCRSSQSIVNSNGNTYLEWYLQKPGQSPKLLIYKVSNRFSGVPDRFSGSGSGTDFTLKISRVEAEDLGVYYCFQGSHVPLTFGAGTKLEIKRTVAAPSVFIFPPSDEQLKSGTASVVCLLNNFYPREAKVQWKVDNALQSGNSQESVTEQDSKDSTYSLSSTLTLSKADYEKHKVYACEVTHQGLSSPVTKSFNRGEC
notes: It was used unlabeled, HRP-labeled or Alexa Fluor 488 labeled, depending on the assay; also called ApoL1-BCMA-bsAb; 488-bsAb
B1 was tested, and the “fold increase in average cell fluorescence compared to isotype control” value [1] was 2 × and the “fold increase of measured fluorescence per cell compared to isotype control” value [2] was 20 ×.

B2: ascites Prot-G purified anti-ApoL1 antibody, clone SFIII 13.11 (mouse IgG1) (antibody, V domains shown)
VH: EVQLVESGGGLVKPGGSLKLSCAASGFTFSTYAMSWVRQSPEKRLEWVAEISNGGLYTYYPDTVTGRFTISRDNVKNILYLEMSSLRSEDTAIYYCIRENRNWYFDLWGAGTTVTVSS
VL: DVLMTQTPLSLPVSLGDQASISCRSSQSIVNSNGNTYLEWYLQKPGQSPKLLIYKVSNRFSGVPDRFSGSGSGTDFTLKISRVEAEDLGVYYCFQGSHVPLTFGAGTKLELKR
notes: Hybridoma-derived mouse IgG1; also called ascites Pro-G purified antibody; purified antibody
B2: binds [3]; binds [4].

B3: BCMA Protein, Human, Recombinant (ECD, rFc Tag) (Sino Biological 10620-H15H) (Fc fusion, UniProt Q02223 1-54, looked up)
chain: MLQMAGQCSQNEYFDSLLHACIPCQLRCSSNTPPLTCQRYCNASVTNSVKGTNA
notes: extracellular domain; Bought protein; also called recombinant BCMA; rabbit Fc tagged BCMA; not shown: rabbit Fc tag
B3: no binding (tested: 1 µg/mL rabbit Fc tagged BCMA) [5].

B4: recombinant anti-Hpr antibody, clone SFII 134.3 (antibody, V domains shown)
VH: QIQLVQSGPELKKPGETVKISCKASGYIFTNYGMNWVRQAPGKGLKWMGWINSYTGEATYTDDLKGRFAFSLESSASTAYLQINNLKNEDTATYFCAREGYGDYGYSFDYWGQGTTLTVSS
VL: DIQMTQSPASLSASVGETVTITCRATKNIYTYLAWYQQKQGKSPQFLVYNAKTLAEGVPSRFSGSGSGTQFSLKINSLQPEDFGNYYCQHHYGTPRTFGGGTKLEIK
notes: Recombinant form of mouse anti-Hpr clone SFII 134.3; it was detected with goat anti-mouse secondary; also called recombinant antibody
B4: no binding (tested: 1:10,000 dilution of antibody) [6].

B5: ascites Prot-G purified anti-Hpr antibody, clone SFII 134.3 (mouse IgG2a) (antibody, V domains shown)
VH: B4 VH
VL: DIQMTQSPASLSASVGETVTITCRATKNIYTYLAWYQQKQGKSPQFLVYNAKTLAEGVPSRFSGSGSGTQFSLKINSLQPEDFGNYYCQHHYGTPRTFGGGTKLEIKR
notes: Hybridoma-derived mouse IgG2a; also called ascites Pro-G purified antibody; purified antibody
B5: no binding (tested: 1:10,000 dilution of antibody) [6].

Source: patent publication US20260071003A1 (UNIVERSITY OF GEORGIA RESEARCH FOUNDATION, published 2026)
